Data reported in publication PMC4970670, “Mek1 Down Regulates Rad51 Activity during Yeast Meiosis by Phosphorylation of Hed1” (PLoS Genetics, 2016).
Where a chain is given by its changes, count along the chain named. Values belong to the binder of their own block, whether it stands above or below them.

Molecular target: T1, Rad51 (S. cerevisiae, UniProt P25454 1-400)
T1 construct: Rad51 recombinase of S. cerevisiae; Used as 0.6 ug of protein in the pull-down
T1 sequence (looked up): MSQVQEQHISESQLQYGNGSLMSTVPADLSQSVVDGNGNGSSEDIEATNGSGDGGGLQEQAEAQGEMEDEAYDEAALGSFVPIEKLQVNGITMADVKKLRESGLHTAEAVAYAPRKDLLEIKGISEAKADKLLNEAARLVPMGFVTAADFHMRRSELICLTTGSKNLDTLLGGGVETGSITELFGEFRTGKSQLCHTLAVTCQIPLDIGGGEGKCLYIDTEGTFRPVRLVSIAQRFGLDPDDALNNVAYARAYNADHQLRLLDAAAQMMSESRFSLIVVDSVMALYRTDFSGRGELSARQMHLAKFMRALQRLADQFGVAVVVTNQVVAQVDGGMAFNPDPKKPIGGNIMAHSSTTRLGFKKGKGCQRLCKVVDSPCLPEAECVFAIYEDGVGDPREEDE
Assay: pull-down; GST-Hed1 WT or 3A (0.6 ug) incubated with Rad51 (0.6 ug), affinity pull-down with Glutathione Sepharose beads; supernatant, wash and SDS-eluate analysed by SDS-PAGE and Coomassie staining
Conditions: both partners purified

binding result: binds
B1: GST-Hed1 (natural protein, S. cerevisiae, UniProt Q03937 1-162, looked up)
chain: MQQRSNRRSCSYIPLGVHNNAEKSLCTEVAPARKNKRSITTSPIVNINVVERRLFNLELEKQQLRAKNLSENTGGGSPNGGAYLDAKKGVREQDQYQGGPSKELDRLQPPPSMKKSPPRKKKSLKDLIYETNKTFYQVDSNKVKYKVGLSKKQLLPSKTVDN
notes: Hed1, meiosis-specific protein of S. cerevisiae; also called GST-Hed1 WT; recombinant GST-Hed1; source: E. coli, purified

binding result: binds
B2: GST-Hed1-3A (natural protein, S. cerevisiae, UniProt Q03937 1-162, looked up)
chain: B1 chain with T40A, T41A, S42A
notes: Hed1, meiosis-specific protein of S. cerevisiae, with T40, T41 and S42 all substituted with alanine; source: E. coli, purified
